Results reported in patent US7745192.

Molecular target: human fibrinogen (UniProt P02671)

For “thrombin resulting from action of Brown snake venom protease”, the “SDS PAGE banding patterns of washed fibrin clots” value was “thrombin resulting from action of Brown snake venom protease converts fibrinogen to fibrin in a similar manner as normal α-thrombin”.
